In US20240360224A1 (ORIONIS BIOSCIENCES, published 2024):

Tests used:
[1] = molecular target: T1, human Clec9A (human, UniProt Q6UXN8 1-241); assay: flow cytometry on HEK293-T cells transfected with human Clec9A; His-tagged VHH at 2 µg/ml, anti-His FITC antibody; single concentration
T1 construct: Expressed on transfected CHO-K1, HEK293-T and HL116 cells, or native on human dendritic cells; also called hClec9A; C-type lectin domain family 9 member A
Method: The binding characteristics of various VHHs (as described in Example 1) were tested by flow cytometry. HEK293-T cells were transfected with a human Clec9A expression plasmid and stained with the His-tagged VHHs at 2 μg/ml, followed by staining with an anti-His Fitc conjugated antibody. Binding was measured by detecting cellular fluorescence via flow cytometry.

[2] = molecular target: T2, biotinylated human CLEC9A (human, UniProt Q6UXN8 57-241, limits assumed, biotinylated (site not stated)); assay: BLI (Octet), biotinylated human CLEC9A on streptavidin sensor, VHH at 50, 100 and 200 nM, global analysis
T2 construct: Captured on a streptavidin sensor for BLI
T2 sequence (Q6UXN8 57-241 limits assumed): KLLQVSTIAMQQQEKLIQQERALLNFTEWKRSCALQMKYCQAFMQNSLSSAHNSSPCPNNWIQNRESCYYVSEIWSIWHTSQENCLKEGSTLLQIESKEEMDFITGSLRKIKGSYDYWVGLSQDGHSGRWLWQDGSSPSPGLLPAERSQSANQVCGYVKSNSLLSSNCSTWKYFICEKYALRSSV
Method: Affinities of the AFN's for Clec9A were determined using the bio-layer interferometry technology on an Octet system (ForteBio).

T1 sequence (Q6UXN8 whole entry, the tested form may be a part): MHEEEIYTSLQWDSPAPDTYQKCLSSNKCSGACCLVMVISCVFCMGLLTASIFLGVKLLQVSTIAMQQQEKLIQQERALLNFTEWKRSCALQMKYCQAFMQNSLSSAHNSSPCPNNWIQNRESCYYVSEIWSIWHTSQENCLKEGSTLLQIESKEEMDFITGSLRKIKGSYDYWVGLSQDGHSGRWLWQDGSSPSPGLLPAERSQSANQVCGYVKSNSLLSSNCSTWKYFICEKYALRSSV

binding result [1]	Binder	also measured
binds	2LEC 76 (VHH, Entry includes C-terminal AAA-HA-His6 (pMECS)) VHH: QVQLQESGGGLVQAGESLRLSCVVSGRTFSINAMGWYRQAPGKQRELVAAITNQGRLSYVDSVKGRFTISRDNAANTVYLQMNSLKPEDTAVYYCAAFQSSGIDWGQGTQVTVSS	
binds	2LEC 88 (VHH, Entry includes C-terminal AAA-HA-His6 (pMECS)) VHH: QVQLQESGGGLVQPGGSLRLSCTASGSFFSINAMGWYRQAPGNQRELVAAITNGGRIAYTDSVKGRFTISNDNAKNTVYLQMNSLKPEDTDVYYCNAKAIPIYGSTAEDYWGQGTQVTVSS	
binds	3LEC 94 (VHH, Entry includes C-terminal AAA-HA-His6 (pMECS)) VHH: QVQLQESGGGSVQAGGSLRLSCAASGRTFSSYAMAWFRQAPGMERELVAAISWSGGSTYYADSVKGRFTISRDNAENTVYLQMNSLKPEDTAVYYCAAEAEGSGREGNFYERSWYQGQGTQVTVSS	
binds	2LEC 60 (VHH, Entry includes C-terminal AAA-HA-His6 (pMECS)) VHH: QVQLQESGGGLVQPGGSLRLSCAASGRFFRVNAMGWYRQVPGKQRELVAAITNGGQIAYADSVKGRFTISRDSAKNTVYLQMNSLKSEDTDVYYCNAKAAATHLSTVADYWGQGTQVTVSS	
binds	3LEC 13 (VHH, Entry includes C-terminal AAA-HA-His6 (pMECS)) VHH: QVQLQESGGGLVQPGGSLRLSCAASGRFFRVNAMGWYRQAPGKQRELVAAITNGGQIVYADSVKGRFTISRDSAKNTVYLQMNSLKSEDTAVYYCNAKAAASYVSTVADYWGQGTQVTVSS	
	3LEC_89 (wild type) (VHH, pHEN6C periplasmic expression with C-terminal his6 tag, no HA tag) VHH: QVQLQESGGGLVQPGGSLRLSCAASGRIFSVNAMGWYRQAPGKQRELVAAITNQGAPTYADSVKGRFTISRDNAGNTVYLQMNSLRPEDTAVYYCKAFTRGDDYWGQGTQVTVSS	Kd [2]: 1.74 nM; koff [2]: 0.000725 s⁻¹; kon [2]: 416000 M⁻¹ s⁻¹
binds	3LEC 15 (VHH, Entry includes C-terminal AAA-HA-His6 (pMECS)) VHH: QVQLQESGGGLVQAGGSLRLSCAASGSVFSINAMGWYRQAPEKQRELVAAITTQGRTTYEDSVKGRFTISRDGAQNTVYLQMDSLKPEDTAVYYCKAWTAKDDYWGKGTQVTVSS	
binds	3LEC 9 (VHH, Entry includes C-terminal AAA-HA-His6 (pMECS)) VHH: QVQLQESGGGLVQAGGSLRVSCAASGRTLSNYAVGWWRQAPGKQREFVAAINWSSGGISYSNSAKGRFALSRDNAKNTVYLQMDSLKPEDTAVYYCAAASSVLSGTVDYWGQGTQVTVSS	
binds	3LEC 82 (VHH, Entry includes C-terminal AAA-HA-His6 (pMECS)) VHH: QVQLQESGGGLVQAGGSLRLSCAASGRTLSNYAVAWFRQAPGKQRELVAAIWWASGGISYANSAKGRFVLSRDNAKNTVYLQMDSLKPEDTAVYYCAAASSVLSGTADYWGQGTQVTVSS	
binds	3LEC 61 (VHH, Entry includes C-terminal AAA-HA-His6 (pMECS)) VHH: QVQLQESGGGLVQAGGSLRVSCAASGRTLSNYAVAWFRQAPGKQREFVAAINWSSGGISYSNAAKGRFALSRDNAKNTVYLQMDSLKPEDTAVYYCAAASSILSGTVDYWGQGTQVTVSS	
binds	2LEC 67 (VHH, Entry includes C-terminal AAA-HA-His6 (pMECS)) VHH: QVQLQESGGGLVQAGGSLRLSCAASGRTFPGYVMAWFRQSPGQEREFAAAINWRGGDTYYADSVKGRFTISRDNVKNTVFLQMNSLKPEDTAVYFCAARLTTEYDYAYWGQGTQVTVSS	
binds	3LEC 4 (VHH, Entry includes C-terminal AAA-HA-His6 (pMECS)) VHH: QVQLQESGGGLVQPGGSLRLSCAASGSFFSINAMGWYRQAPGKQRELVAAITNQGRIAYADSVKGRFTISRDNAKNTVYLQMNSLKPEDTAVYYCGRPGWDYWGQGTQVTVSS	
binds	2LEC 61 (VHH, Entry includes C-terminal AAA-HA-His6 (pMECS)) VHH: QVQLQESGGGLVQPGGSLRLSCAASGSIVSINSMGWYRQAPGKQRELVAAITDQGRTTYADSVKGRFTISRDDAKNKNTVYLQMNSLKAEDTAVYACKAFGRFDDYWGQGTQVTVSS	
binds	3LEC 27 (VHH, Entry includes C-terminal AAA-HA-His6 (pMECS)) VHH: QVQLQESGGGLVQAGGSLRLSCAASVNIGTLNSMAWYREAPGKQRELVAGITGGGQITYANSVRGRFTVSRDIAKSTAYLQMNTLKPEDTAVYYCAAYDRSATPYWGQGTQVTVSS	
binds	1LEC 51 (VHH, Entry includes C-terminal AAA-HA-His6 (pMECS)) VHH: QVQLQESGGGLVQAGGSLRLSCAASVNIDTLNSMAWYRQAPGKQRELVAGITGSGQITYANSVRGRFTVSRDNAKSTVYLQMNTLQPEDTAVYYCAAYDRSSTPYWGQGTQVTVSS	
binds	3LEC 6 (VHH, Entry includes C-terminal AAA-HA-His6 (pMECS)) VHH: QVQLQESGGGLVQAGGSLRLSCVASVNIGSLNSMVWYRQSPGKQRELVAGITGSGQITYANSVRGRFTVSRDIAKSTAYLQMNTLKPEDTAVYYCAAYDRSATAYWGQGTQVTVSS	

binding result [1]	Binder	also measured
binds	3LEC 22 (VHH, Entry includes C-terminal AAA-HA-His6 (pMECS)) VHH: QVQLQESGGGRVQPGGSLRLSCAAIGSIFEINSIGWYRQAPGKQRELVAAITSGGITNYANSVQGRSTISRDNVNNTVYLQMNSLKPEDSAVYYCKGFTGWGKEDYWGQGTQVTVSS	
binds	2LEC 95 (VHH, Entry includes C-terminal AAA-HA-His tag (pMECS); only five His are printed in the text) VHH: QVQLQESGGGLVQAGGSLRLSCEASGRTFSTYAMAWFRQAPGKERDLVAAISWSGGSTEYHDSVKGRFTISRDNTKNTVYLQMNSLKAEDTAVYYCAAEVEGSGREGNFYGASWYPGQGTQVTVSS	
	R1CHCL50 (wild type) (VHH, pHEN6C periplasmic expression with C-terminal his6 tag) VHH: QVQLVESGGGLVHPGGSLRLSCAASGSFSSINVMGWYRQAPGKERELVARITNLGLPNYADSVTGRFTISRDNAKNTVYLQMNSLKPEDTAVYYCYLVALKAEYWGQGTQVTVSS	Kd [2]: 1.72 nM; koff [2]: 0.000705 s⁻¹; kon [2]: 410000 M⁻¹ s⁻¹
	R1CHCL50_opt3 (E1D-A74S-K83R-Q108L-T64K) (VHH, The entry already carries the named substitutions; pHEN6C, C-terminal his6 tag) VHH: DVQLVESGGGLVHPGGSLRLSCAASGSFSSINVMGWYRQAPGKERELVARITNLGLPNYADSVKGRFTISRDNSKNTVYLQMNSLRPEDTAVYYCYLVALKAEYWGQGTLVTVSS	Kd [2]: 1.79 nM; koff [2]: 0.000998 s⁻¹; kon [2]: 559000 M⁻¹ s⁻¹
	R1CHCL50_opt1 (E1D-A74S-K83R-Q108L) (VHH, The entry already carries the named substitutions; pHEN6C, C-terminal his6 tag) VHH: DVQLVESGGGLVHPGGSLRLSCAASGSFSSINVMGWYRQAPGKERELVARITNLGLPNYADSVTGRFTISRDNSKNTVYLQMNSLRPEDTAVYYCYLVALKAEYWGQGTLVTVSS	Kd [2]: 1.29 nM; koff [2]: 0.000635 s⁻¹; kon [2]: 492000 M⁻¹ s⁻¹
	R1CHCL50_opt2 (E1D-A74S-K83R-Q108L-H13Q) (VHH, The entry already carries the named substitutions; pHEN6C, C-terminal his6 tag) VHH: DVQLVESGGGLVQPGGSLRLSCAASGSFSSINVMGWYRQAPGKERELVARITNLGLPNYADSVTGRFTISRDNSKNTVYLQMNSLRPEDTAVYYCYLVALKAEYWGQGTLVTVSS	Kd [2]: 1.15 nM; koff [2]: 0.000723 s⁻¹; kon [2]: 630000 M⁻¹ s⁻¹
	R1CHCL50_opt4 (E1D-A74S-K83R-Q108L-H13Q-T64K) (VHH, The entry already carries the named substitutions; pHEN6C, C-terminal his6 tag) VHH: DVQLVESGGGLVQPGGSLRLSCAASGSFSSINVMGWYRQAPGKERELVARITNLGLPNYADSVKGRFTISRDNSKNTVYLQMNSLRPEDTAVYYCYLVALKAEYWGQGTLVTVSS	Kd [2]: 2.7 nM; koff [2]: 0.00118 s⁻¹; kon [2]: 438000 M⁻¹ s⁻¹
binds	3LEC 62 (VHH, Entry includes C-terminal AAA-HA-His6 (pMECS)) VHH: QVQLQESGGGLVQPGGSLRLSCAASGRIGSINSMGWYRQAPGKQREMVAAITNGGATVYADSVKGRFTISRDNAGNTVDLHMNSLRPEDSAVYYCTIWAADYQQYWGQGTQVTVSS	
binds	1LEC 26 (VHH, Entry includes C-terminal AAA-HA-His6 (pMECS)) VHH: QVQLQESGGGLVQPGGSLRLSCAASGRFFRVNAMGWYRQAPGKQRELVAAITNGGQTAYADSVKGRFTISKESARNTVHLQMSSLKPEDTAVYYCTIWAADYQQYWGQGTQVTVSS	
binds	3LEC 23 (VHH, Entry includes C-terminal AAA-HA-His6 (pMECS)) VHH: QVQLQESGGGLVQTGGSLRLSCAASGSIFNINSMGWYRQAPGKQRELVAAITVGGRLAYADSAKGRFTISKESARNTVHLQMSSLKPEDTAVYYCTIWAADYQQYWGQGTQVTVSS	
binds	1LEC 61 (VHH, Entry includes C-terminal AAA-HA-His6 (pMECS)) VHH: QVQLQESGGGLVQPGGSLRLSCAASGGISSINSMGWYRQAPGNQRELVAAITNGGRTVYGDSVKGRFTISRDSAGNTVHLQMDSLRPEDTGVYYCKAFTRGDDYWGQGTQVTVSS	
binds	2LEC 83 (VHH, Entry includes C-terminal AAA-HA-His6 (pMECS)) VHH: QVQLQESGGGLVQAGGSLRLSCAASGRTLSSYTIGWYRQAPGKQRELVAAITNQGRRTYADSVKGRFTISRDNAKNTVYLQMDSLKSEDTAVYYCKGFSPTDDFWGQGTQVTVSS	
binds	1LEC 27 (VHH, Entry includes C-terminal AAA-HA-His6 (pMECS)) VHH: QVQLQESGGGLVQAGESLRLSCAASGSSDSINAMGWYRQAPGKQRELVAAITSGGRSTYIDSAKGRATISRDNARNTAYLQMSSLKAEDTAVYYCTIWNRDRQQYWGQGTQVTVSS	
binds	2LEC 62 (VHH, Entry includes C-terminal AAA-HA-His6 (pMECS)) VHH: QVQLQESGGGLVQPGGSLRLSCAAYGSIFSINAMGWYRQAPGKERELVAGITTQGRITYGNSVRGRFTISGDNAKNTVYLQMKSLKPEDTAVYYCSAWGVKTGPESGSGTLEGQGTQVTVSS	
binds	2LEC 89 (VHH, Entry includes C-terminal AAA-HA-His6 (pMECS)) VHH: QVQLQESGGGLVQAGGSLRLSCAASGSIFSINSMGWYRQAPGKQRELVAAITNGGRTTYADSVKGRFTISRDNAKNTVYLQMDSLKPEDTAVYYCKGFSLTDDYWGQGTQVTVSS	
